In general, EC50 (read off the curve) refers to the concentration needed to bring the measured effect to its halfway point. For orientation: Kd means a measure of binding affinity in units of concentration. A higher Kd goes with weaker binding. The EC50 is the concentration giving half of the maximal effect.

Assay [1] addresses T1, human CD70 expressed on the cell surface (human, UniProt P32970 1-193).
T1 construct: also called full length CD70 on transfected CHO cells
T1 sequence: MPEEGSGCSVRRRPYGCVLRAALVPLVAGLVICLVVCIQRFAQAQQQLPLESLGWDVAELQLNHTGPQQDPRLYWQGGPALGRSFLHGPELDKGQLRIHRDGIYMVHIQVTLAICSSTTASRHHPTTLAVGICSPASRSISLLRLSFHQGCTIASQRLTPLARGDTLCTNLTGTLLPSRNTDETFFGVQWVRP
Kind of assay: flow cytometry titration on A498 cells, PE anti-human IgG. On the procedure: (§1) Binding of the anti-CD70 human monoclonal antibodies was assessed by incubating 5×10⁵ cells with antibody at a starting concentration of 50 μg/ml and serially diluting the antibody at a 1:3 dilution. The cells were washed and binding was detected with a PE-labeled anti-human IgG Ab. Flow cytometric analyses were performed using a FACSCalibur flow cytometry (Becton Dickinson, San Jose, Calif.).
For orientation: Flow cytometry measures light scatter and fluorescence of single cells or particles in a stream.

The target of assay [2] is T1, human CD70 expressed on the cell surface. Kind of assay: flow cytometry titration on 786-O cells, PE anti-human IgG. The method, then:
as §1

The target is the same in assay [3]. Nature of the assay: Scatchard analysis, 125I-labelled antibody on CHO cells transfected with full length CD70. The method, then:
CHO cells were transfected with full length CD70 using standard techniques and grown in RPMI media containing 10% fetal bovine serum (FBS). The cells were trypsinized and washed once in Tris based binding buffer (24 mM Tris pH 7.2, 137 mM NaCl, 2.7 mM KCl, 2 mM Glucose, 1 mM CaCl₂, 1 mM MgCl₂, 0.1% BSA) and the cells were adjusted to 2×10⁶ cells/ml in binding buffer. Millipore plates (MAFB NOB) were coated with 1% nonfat dry milk in water and stored a 4° C. overnight. The plates were washed three times with 0.2 ml of binding buffer. Fifty microliters of buffer alone was added to the maximum binding wells (total binding). Twenty-five microliters of buffer alone was added to the control wells (non-specific binding). […] Varying concentrations of unlabeled antibody at 100 fold excess was added in a volume of 25 μl to control wells and 25 μl of CD70 transfected CHO cells (2×10⁶ cells/ml) in binding buffer were added to all wells. The plates were incubated for 2 hours at 200 RPM on a shaker at 4° C. At the completion of the incubation the Millipore plates were washed three times with 0.2 ml of cold wash buffer (24 mM Tris pH 7.2, 500 mM NaCl, 2.7 mM KCl, 2 mM Glucose, 1 mM CaCl₂, 1 mM MgCl₂, 0.1% BSA.). The filters were removed and counted in a gamma counter. Evaluation of equilibrium binding was performed using single site binding parameters with the Prism software (San Diego, Calif.).

For assay [4], the target named is T2, recombinant human CD70 fused with a dual myc-His tag (human, UniProt P32970 39-193).
T2 construct: also called recombinant myc-tagged CD70; CD70-myc-his; not shown: dual myc-His tag
T2 sequence: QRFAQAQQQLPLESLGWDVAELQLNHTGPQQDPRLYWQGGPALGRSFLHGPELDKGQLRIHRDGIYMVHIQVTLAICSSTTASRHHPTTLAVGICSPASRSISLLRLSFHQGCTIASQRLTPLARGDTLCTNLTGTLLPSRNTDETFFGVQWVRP
Nature of the assay: ELISA on plate-coated recombinant myc-tagged CD70, anti-human IgG-HRP detection. On the procedure:
Standard ELISA procedures were performed. The anti-CD70 human monoclonal antibodies were added at a concentration of 1 μg/ml and titrated down at 1:2 serial dilutions. Goat-anti-human IgG (Fc or kappa chain-specific) polyclonal antibody conjugated with horseradish peroxidase (HRP) was used as secondary antibody.

For assay [5], the target named is T1, human CD70 expressed on the cell surface. Kind of assay: cell-based or functional assay.
For assay [6] the target is unchanged. Nature of the assay: flow cytometry on Raji cells, MFI. The method, then: (§2) Binding of the anti-CD70 human monoclonal antibodies was assessed by incubating 5×10⁵ cells with antibody at a starting concentration of 50 μg/ml and serially diluting the antibody at a 1:3 dilution. An isotype control antibody was used as a negative control. The cells were washed and binding was detected with a PE-labeled anti-human IgG Ab. Flow cytometric analyses were performed using a FACSCalibur flow cytometry (Becton Dickinson, San Jose, Calif.).

For assay [7] the target is unchanged. Nature of the assay: flow cytometry on Granta 519 cells, MFI. On the procedure: as §2
Assay [8] deals with T3, CD70 (Homo sapiens, UniProt P32970).
T3 sequence (P32970 1-193): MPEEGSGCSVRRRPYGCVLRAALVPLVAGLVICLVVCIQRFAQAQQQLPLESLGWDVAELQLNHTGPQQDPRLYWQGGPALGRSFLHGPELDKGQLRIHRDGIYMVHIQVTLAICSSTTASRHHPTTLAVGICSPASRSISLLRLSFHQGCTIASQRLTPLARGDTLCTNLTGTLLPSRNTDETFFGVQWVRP
Kind of assay: Epitope binding experiments using BIAcore. On the procedure:
Such cross-competing antibodies can be identified based on their ability to cross-compete with 2H5, 10B4, 8B5, 18E7, 69A7, 69A7Y or 1F4 in standard CD70 binding assays. For example, standard ELISA assays can be used in which a recombinant human CD70 protein is immobilized on the plate, one of the antibodies is fluorescently labeled and the ability of non-labeled antibodies to compete off the binding of the labeled antibody is evaluated. Additionally or alternatively, BIAcore analysis can be used to assess the ability of the antibodies to cross-compete.
On the technique in general: In SPR one partner is held on a chip, and binding of the other changes the refractive index at the surface.

In assay [9] the target is human CD16 (FcRγIII) on effector cells (human, UniProt P08637 17-254). Kind of assay: cell-based or functional assay.
Chain of human CD16 (FcRγIII) on effector cells (P08637 17-254): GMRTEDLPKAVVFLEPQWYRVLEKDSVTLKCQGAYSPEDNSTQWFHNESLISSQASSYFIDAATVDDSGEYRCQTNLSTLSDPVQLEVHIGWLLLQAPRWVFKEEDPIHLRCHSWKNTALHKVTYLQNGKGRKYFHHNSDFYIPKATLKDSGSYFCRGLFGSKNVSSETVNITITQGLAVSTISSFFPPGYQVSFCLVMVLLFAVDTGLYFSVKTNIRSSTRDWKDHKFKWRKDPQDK
Assay [10] addresses T1, human CD70 expressed on the cell surface. Nature of the assay: flow cytometry on 786-0 cells, goat F(ab')2 anti-human IgG(Fc)-PE. On the procedure:
The cells were incubated for 30 minutes on ice, washed twice in staining buffer and stained with Goat F(ab)′2-anti-human-IgG(Fc)-PE conjugate for 30 minutes. The cells were washed and resuspended in staining buffer for analysis by flow cytometry.

The subject of assay [11] is CD70-mediated CD27 signaling induced proliferation of human CD3+ T cells. Nature of the assay: Functional blocking of CD70 costimulated T cell proliferation. The format is cell-based. To be noted: anti-CD3 (OKT3), CHO cells with mouse CD32 and human CD70, 3 days. The text has this: This example describes the analysis and characterization of the functional blocking of CD70 costimulated T cell proliferation by anti-CD70 antibodies 1F4 IgG1, 1F4 IgG4, 2H5, 2H5 F(ab′)2 and 2H5 Fab.
Human CD3^+ T cells were isolated from cryopreserved PBMC using MACS CD3 Microbeads and then cultured at 2×10^6 cells/ml in RPMI-1640 complete media+10% heat inactivated FCS in the presence of Mitomycin C treated CHO cells stably transfected with both mouse CD32 and human CD70. Cells were stimulated with […] anti-CD3 (clone OKT3) for 3 days, 1 μCi/well of ^3H-Thymidine was added for 6 hours and the cells were harvested. Proliferation was measured as CPM incorporated by scintillation counting.

B1: anti-CD70 human monoclonal antibody 10B4 (antibody, V domains shown)
VH: QIQLVESGGGVVQPGRSLRLSCAASGFTFGYYAMHWVRQAPGKGLEWVAVISYDGSIKYYADSVKGRFTISRDNSKNTLYLQMNSLRAEDTAVYYCAREGPYSNYLDYWGQGTLVTVSS
VL: AIQLTQSPSSLSASVGDRVTITCRASQGISSALAWYQQKPGKAPKFLIYDASSLESGVPSRFSGSGSGTDFTLTISSLQPEDFATYYCQQFNSYPFTFGPGTKVDIK
notes: Human IgG from hybridoma
Turning to B1, the “EC50 (read off the curve)” value in assay [1] was about 4 nM; in assay [2], about 2 nM; in [4], about 0.05 µg/mL. This molecule also returned a Kd in assay [3] of about 1.6 nM.

B2: anti-CD70 human monoclonal antibody 8B5 (antibody, V domains shown)
VH: QVQLVESGGGVVQPGRSLRLSCATSGFTFSDYGMHWVRQAPGKGLEWVAVIWYDGSNKYYADSVKGRFTISRDNSKKTLSLQMNSLRAEDTAVYYCARDSIMVRGDYWGQGTLVTVSS
VL: DIQMTQSPSSLSASVGDRVTITCRASQGISSWLAWYQQKPEKAPKSLIYAASSLQSGVPSRFSGSGSGTDFTLTISSLQPEDFATYYCQQYNSYPLTFGGGTKVEIK
notes: Human IgG from hybridoma
Consider B2, for which, in assay [3], the Kd was about 5.1 nM.

B3: anti-CD70 human monoclonal antibody 18E7 (antibody, V domains shown)
VH: QVQLVESGGGVVQPGRSLRLSCAASGFTFSDHGMHWVRQAPGKGLEWVAVIWYDGSNKYYADSVKGRFTISRDNSKNTLYLQMNSLRAEDTAVYYCARDSIMVRGDYWGQGTLVTVSS
VL: DIQMTQSPSSLSASVGDRVTITCRASQGISSWLAWYQQKPEKAPKSLIYAASSLQSGVPSRFSGSGSGTDFTLTISSLQPEDFATYYCQQYNSYPLTFGGGTKVEIK
notes: Human IgG from hybridoma
Turning to B3, in assay [2], the “EC50 (read off the curve)” value is about 7 nM. The molecule also yielded a Kd in assay [3] of about 1.5 nM.

B4: anti-CD70 human monoclonal antibody 2H5 (antibody, IgG1, V domains shown)
VH: QVQLVESGGGVVQPGRSLRLSCAASGFTFSSYIMHWVRQAPGKGLEWVAVISYDGRNKYYADSVKGRFTISRDNSKNTLYLQMNSLRAEDTAVYYCARDTDGYDFDYWGQGTLVTVSS
VL: EIVLTQSPATLSLSPGERATLSCRASQSVSSYLAWYQQKPGQAPRLLIYDASNRATGIPARFSGSGSGTDFTLTISSLEPEDFAVYYCQQRTNWPLTFGGGTKVEIK
notes: Human IgG with kappa light chain; also called HuMAb 2H5; 2H5 IgG1
With B4, the “EC50 of decrease in ^3H-thymidine incorporation, Hum-Zap internalization assay on 786-O cells” value in [5] is 0.9 nM. Also, the EC50 in assay [6] and in [7] was 1.33 nM each time. For the same molecule, the results for the “EC50 (read off the curve)” value in assay [1], in assay [2] and in assay [4] were about 8 nM, about 5 nM and about 0.06 µg/mL, respectively. Also, the Kd in assay [3] was about 2.1 nM.

B5: 69A7Y: same as 69A7 with C to Y mutation at VH position 100; VH SEQ ID NO:73, VL SEQ ID NO:11 (antibody, listed as Homo sapiens, V domains shown)
VH: QVQLQESGPGLVKPSETLSLTCTVSGGSVSSDYYYWSWIRQPPGKGLEWLGYIYYSGSTNYNPSLKSRVTISVDTSKNQFSLKLRSVTTADTAVYYCARGDGDYGGNYFDYWGQGTLVTVSS
VL: EIVLTQSPATLSLSPGERATLSCRASQSVSSYLAWYQQKPGQAPRLLIFDASNRATGIPARFSGSGSGTDFTLTISSLEPEDFAVYYCQQRSNWPLTFGGGTKVEIK
Turning to B5, the “epitope on CD70” value in [8] is given as “distinct epitopes”.

B6: nonfucosylated anti-CD70 human monoclonal antibody 2H5 (antibody, V domains shown)
VH: QVQLVESGGGVVQPGRSLRLSCAASGFTFSSYIMHWVRQAPGKGLEWVAVISYDGRNKYYADSVKGRFTISRDNSKNTLYLQMNSLRAEDTAVYYCARDTDGYDFDYWGQGTLVTVSS
VL: EIVLTQSPATLSLSPGERATLSCRASQSVSSYLAWYQQKPGQAPRLLIYDASNRATGIPARFSGSGSGTDFTLTISSLEPEDFAVYYCQQRTNWPLTFGGGTKVEIK
notes: also called 2H5 NF; 2H5nf
With B6, in assay [9], the “amount of anti-CD16 antibody 3G8 needed to reverse the inhibition of peptide specific CD8+ T cell expansion, against 2H5” value was about 1000 fold and the “potency in lysis of activated human B cells against 2H5, ^51Cr-release ADCC assay with anti-CD16 antibody 3G8” value was about 10 fold. Also, in assay [10], the “EC50 (read off the curve)” value is about 0.2 µg/mL.

B7: 2H5 F(ab′)2: F(ab′)2 fragment of anti-CD70 antibody 2H5 (antibody, V domains shown)
VH: QVQLVESGGGVVQPGRSLRLSCAASGFTFSSYIMHWVRQAPGKGLEWVAVISYDGRNKYYADSVKGRFTISRDNSKNTLYLQMNSLRAEDTAVYYCARDTDGYDFDYWGQGTLVTVSS
VL: EIVLTQSPATLSLSPGERATLSCRASQSVSSYLAWYQQKPGQAPRLLIYDASNRATGIPARFSGSGSGTDFTLTISSLEPEDFAVYYCQQRTNWPLTFGGGTKVEIK
With B7, the “functional blocking of CD70 costimulated T cell proliferation” value in assay [11] was “reduced functional blocking efficacy”.

B8: 2H5 Fab: Fab fragment of anti-CD70 antibody 2H5 (antibody, V domains shown)
VH: QVQLVESGGGVVQPGRSLRLSCAASGFTFSSYIMHWVRQAPGKGLEWVAVISYDGRNKYYADSVKGRFTISRDNSKNTLYLQMNSLRAEDTAVYYCARDTDGYDFDYWGQGTLVTVSS
VL: EIVLTQSPATLSLSPGERATLSCRASQSVSSYLAWYQQKPGQAPRLLIYDASNRATGIPARFSGSGSGTDFTLTISSLEPEDFAVYYCQQRTNWPLTFGGGTKVEIK
B8: the “functional blocking of CD70 costimulated T cell proliferation” value in assay [11] is on record as “complete lack of functional blocking activity”.

The values above are taken from patent US20100150950A1, “HUMAN ANTIBODIES THAT BIND CD70 AND USES THEREOF” (Medarex, Inc., priority 2006, published 2010).
